Experimental data reported in PMC6793942, “The Ps and Qs of alarmone synthesis in Staphylococcus aureus” (PLoS ONE, 2019).

Assays:
EF-RelQ = target: T1, EF-RelQ (Enterococcus faecalis, UniProt Q830U9); conditions: allosteric activator; ppGpp synthesis from 1 mM GDP + 1 mM ATP; 2 mM MgCl2; pH 9.0; 37°C
T1 construct: gene EF_2671
Description: AMP formation by anion exchange chromatography, fold change of rate on EF-RelQ

Sm-RelP = target: T2, Sm-RelP (Streptococcus mutans, UniProt Q8DUK1); conditions: inhibitor; pGpp synthesis from 1 mM GMP + 1 mM ATP; 2 mM MgCl2; pH 9.0; 37°C
T2 construct: gene SMU_926
Description: AMP formation by anion exchange chromatography, fold change of rate on Sm-RelP

Sm-RelQ = target: T3, Sm-RelQ (Streptococcus mutans, UniProt Q8DU97); conditions: allosteric activator; pGpp synthesis from 1 mM GMP + 1 mM ATP; 2 mM MgCl2; pH 9.0; 37°C
T3 construct: gene SMU_1046c
Description: AMP formation by anion exchange chromatography, fold change of rate on Sm-RelQ

[1] = tested on: Nc1nc2c(ncn2[C@@H]2O[C@H](COP(=O)(O)OP(=O)(O)OP(=O)(O)O)[C@@H](OP(=O)(O)OP(=O)(O)O)[C@H]2O)c(=O)[nH]1; experiment: purified protein; conditions: hydrolysis (HD domain), 1 mM MnCl2, 10 mM MgCl2, pH 7.8, 25°C
[2] = tested on: Nc1nc2c(ncn2[C@@H]2O[C@H](COP(=O)(O)OP(=O)(O)OP(=O)(O)O)[C@@H](O)[C@H]2O)c(=O)[nH]1; experiment: purified protein; conditions: pppGpp synthesis (SYNTH domain), 8 mM ATP, 6 mM MgCl2, pH 7.8, 25°C
[3] = tested on: Nc1nc2c(ncn2[C@@H]2O[C@H](COP(=O)(O)OP(=O)(O)O)[C@@H](OP(=O)(O)OP(=O)(O)O)[C@H]2O)c(=O)[nH]1; experiment: purified protein; conditions: hydrolysis (HD domain), 1 mM MnCl2, 10 mM MgCl2, pH 7.8, 25°C
[4] = tested on: Nc1nc2c(ncn2[C@@H]2O[C@H](COP(=O)(O)OP(=O)(O)O)[C@@H](O)[C@H]2O)c(=O)[nH]1; experiment: purified protein; conditions: ppGpp synthesis (SYNTH domain), 8 mM ATP, 6 mM MgCl2, pH 7.8, 25°C
[5] = tested on: Nc1nc2c(ncn2[C@@H]2O[C@H](COP(=O)(O)O)[C@@H](OP(=O)(O)OP(=O)(O)O)[C@H]2O)c(=O)[nH]1; experiment: purified protein; conditions: hydrolysis (HD domain), 1 mM MnCl2, 10 mM MgCl2, pH 7.8, 25°C
[6] = tested on: Nc1nc2c(ncn2[C@@H]2O[C@H](COP(=O)(O)O)[C@@H](O)[C@H]2O)c(=O)[nH]1; experiment: product formation by anion exchange chromatography; assay type: biochemical, Staphylococcus aureus; conditions: pGpp synthesis, 2.5 mM ATP, 5 mM MgCl2, pH 9.0, no added alarmone, 625 ± 165 in the source
Description: (§1) product formation by anion exchange chromatography on Sa-RelP

[7] = tested on: Nc1nc2c(ncn2[C@@H]2O[C@H](COP(=O)(O)OP(=O)(O)OP(=O)(O)O)[C@@H](O)[C@H]2O)c(=O)[nH]1; experiment: product formation by anion exchange chromatography; assay type: biochemical, Staphylococcus aureus; conditions: pppGpp synthesis, 2.5 mM ATP, 5 mM MgCl2, pH 9.0, no added alarmone
Description: as §1

[8] = tested on: Nc1nc2c(ncn2[C@@H]2O[C@H](COP(=O)(O)OP(=O)(O)O)[C@@H](O)[C@H]2O)c(=O)[nH]1; experiment: product formation by anion exchange chromatography; assay type: biochemical, Staphylococcus aureus; conditions: ppGpp synthesis, 2.5 mM ATP, 5 mM MgCl2, pH 9.0, no added alarmone
Description: as §1

T1 sequence (Q830U9 entry or part of it): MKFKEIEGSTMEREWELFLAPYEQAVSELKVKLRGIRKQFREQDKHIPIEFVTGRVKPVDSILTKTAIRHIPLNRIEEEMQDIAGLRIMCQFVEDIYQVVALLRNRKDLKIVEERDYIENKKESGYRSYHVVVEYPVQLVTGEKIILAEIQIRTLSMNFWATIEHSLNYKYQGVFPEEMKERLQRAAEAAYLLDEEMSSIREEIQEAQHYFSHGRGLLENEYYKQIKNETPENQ
T2 sequence (Q8DUK1 entry or part of it): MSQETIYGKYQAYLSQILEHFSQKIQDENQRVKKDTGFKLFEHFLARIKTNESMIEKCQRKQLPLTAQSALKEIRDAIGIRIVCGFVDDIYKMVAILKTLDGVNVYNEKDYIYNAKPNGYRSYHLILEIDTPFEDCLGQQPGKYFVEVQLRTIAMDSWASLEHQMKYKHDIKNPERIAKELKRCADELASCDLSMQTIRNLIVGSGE
T3 sequence (Q8DU97 entry or part of it): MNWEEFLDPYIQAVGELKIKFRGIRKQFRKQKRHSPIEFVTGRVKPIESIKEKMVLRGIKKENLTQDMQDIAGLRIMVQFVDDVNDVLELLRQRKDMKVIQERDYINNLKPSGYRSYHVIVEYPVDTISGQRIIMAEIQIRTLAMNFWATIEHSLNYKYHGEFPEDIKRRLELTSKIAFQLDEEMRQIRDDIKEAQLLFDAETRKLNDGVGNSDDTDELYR

`Nc1nc2c(ncn2[C@@H]2O[C@H](COP(=O)(O)OP(=O)(O)O)[C@@H](OP(=O)(O)OP(=O)(O)O)[C@H]2O)c(=O)[nH]1` [ppGpp, guanosine-3’,5’-bis(diphosphate)] was tested, and the “+ 100 μM ppGpp / Fold-change” value (EF-RelQ) was 7.8 ± 0.6 fold.
For `Nc1nc2c(ncn2[C@@H]2O[C@H](COP(=O)(O)OP(=O)(O)OP(=O)(O)O)[C@@H](OP(=O)(O)OP(=O)(O)O)[C@H]2O)c(=O)[nH]1` [pppGpp, guanosine-5’-triphosphate 3’-diphosphate], the “+ 100 μM pppGpp / Fold-change” value (Sm-RelP) was 0.3 ± 0.1 fold and the “+ 100 μM pppGpp / Fold-change” value (Sm-RelQ) was 572 ± 149 fold.
Work on “Sa-Rel (Staphylococcus aureus subsp. aureus MRSA252)” yielded a Km [1] of 14.2 ± 1.3 µM, a Vmax [1] of 4.68 µM/min and a kcat [1] of 0.78 s⁻¹. The kcat/Km [1] was 55200 M⁻¹ s⁻¹, the Km [2] was 114.3 ± 15.7 µM and the Vmax [2] was 3.84 µM/min. The kcat [2] was 0.064 s⁻¹, the kcat/Km [2] was 560 M⁻¹ s⁻¹ and the Km [3] was 21.7 ± 2.8 µM. For the same molecule, the Vmax [3] was 3.6 µM/min, the kcat [3] was 0.6 s⁻¹ and the kcat/Km [3] was 27500 M⁻¹ s⁻¹. The Km [4] was 434.9 ± 61.2 µM, the Vmax [4] was 1.08 µM/min and the kcat [4] was 0.018 s⁻¹. For the same molecule, the kcat/Km [4] was 41 M⁻¹ s⁻¹, the Km [5] was 16.9 ± 2.1 µM and the Vmax [5] was 4.08 µM/min. It also gave a kcat [5] of 0.68 s⁻¹ and a kcat/Km [5] of 40000 M⁻¹ s⁻¹.
“Sa-RelP (Staphylococcus aureus subsp. aureus NCTC 8325)” showed a Km [6] of 625 ± 169 µM, a Vmax [6] of 3.6 µM/min and a kcat [6] of 0.06 ± 0.01 s⁻¹. The kcat/Km [6] was 90 ± 20 M⁻¹ s⁻¹, the Km [7] was 80 ± 21 µM and the Vmax [7] was 6 µM/min. For the same molecule, the kcat [7] was 0.38 ± 0.03 s⁻¹, the kcat/Km [7] was 4750 ± 1000 M⁻¹ s⁻¹ and the Km [8] was 177 ± 52 µM. For the same molecule, the Vmax [8] was 12 µM/min, the kcat [8] was 0.78 ± 0.08 s⁻¹ and the kcat/Km [8] was 4430 ± 900 M⁻¹ s⁻¹.
